biological target: EGFR recombinant human protein (human) (UniProt P00533); assay: SPR; EGFR (20 µg/mL) or BSA (20 µg/mL) covalently attached (EDC/NHS) to a carboxymethylated dextran chip; peptides injected as analytes at 15 µL/min; 25 °C; PBS with 0.01% Tween 20, pH 7.4; global fit, 1:1 Langmuir model with mass transport; KD from koff/kon

Which Kd does the source give for WSGENGPGYFDYEA (designed binder) [Pep6] here?
Its Kd is 4800 nM.

WSGENGPGFYDYEA (designed binder) [Pep11] was tested. Which Kd did it give?
Its Kd is 252 nM.

For WSGENGPGTFYDYEA (designed binder) [Pep22], which Kd is on record?
Its Kd is 595 nM.
